These results are taken from patent US20100008978A1, “NANOPARTICLES EFFECTIVE FOR INTERNALIZATION INTO CELLS” (THE REGENTS OF THE UNIVERSITY OF CALIFORNIA, priority 2008, published 2010).

Changes are numbered by the printed parent chain. Entries after “also recorded” stand apart in the source; their conditions may differ.

Assay [1] addresses T1, epidermal growth factor receptor (EGFR) on tumor cells (human, UniProt P00533 25-1210).
T1 construct: whole, on cells; Intact EGFR on A431 and MDAMB468 cells (1x10^6-3x10^6 EGFR/cell); also called EGFR-expressing A431 cells; MDAMB468 cells
Nature of the assay: apparent KD, flow cytometry, fluorescent immunoliposomes on MDAMB468 cells, 4 C; 148 scFv/liposome. A general note: A flow cytometer gives signals particle by particle.

Assay [2] addresses T1, epidermal growth factor receptor (EGFR) …. Nature of the assay: apparent KD, flow cytometry, fluorescent immunoliposomes on MDAMB468 cells, 4 C; 74 scFv/liposome.
Assay [3] has as its target T2, EGFR (vIII) stably transfected NR6M cells (Homo sapiens, UniProt P00533, DELINS30-297G).
T2 construct: expressed in transfected cells; host or cells: NR6M (NR6 stably transfected with EGFRvIII)
Nature of the assay: differential binding of scFv to cell lines by flow cytometry.

Assay [4] has as its system MDAMB468 cells. The description is as above. The conditions noted are these: 1×10^6−3×10^6 EGFR/cell. Details: species or system human.
Assay [5] relates to MDAMB453 cells. Described as above. The conditions noted are these: 10^4 EGFR/cell.
In assay [6] the target is T3, A431 cells (Homo sapiens, UniProt P00533).
T3 construct: endogenous in cells; host or cells: A431
Described as above. Particulars: 1×10^6−3×10^6 EGFR/cell.

Assay [7] deals with T4, biotinylated EGFR-ECD (Homo sapiens, UniProt P00533).
T4 construct: Recombinant EGFR-ECD was expressed in HEK293 cells; made in house; host or cells: HEK293
In words: KD of yeast-displayed scFv for biotinylated EGFR-ECD by flow cytometry. It is filed as binding. Particulars: concentrations as high as 8 μM. As for the experimental part: Generally, six to eight different concentrations of biotinylated EGFR were used to span a range of concentrations from ten times above to ten times below the KD. Incubation volumes, times and yeast numbers were chosen to ensure that the studies were done in at least fivefold antigen excess and that equilibrium had been achieved (Razai et al. (2005) J. Mol. Biol. 351: 158-169). For anti-EGFR scFv, […] in 50 μl were incubated with biotinylated EGFR-ECD for 1 h at room temperature. […] Only yeast displaying scFv (as determined by binding of SV5 mAb) were gated for affinity measurements.

The test system of assay [8] is NR6 cells. In words: differential binding of scFv to cell lines by flow cytometry. The conditions noted are these: parental, EGFR negative.
Assay [9] has as its target T5, A431 cells expressing EGFR (Homo sapiens, UniProt P00533).
T5 construct: Human squamous carcinoma A431 cells expressing EGFR; endogenous in cells; host or cells: A431
In words: scFv affinity for cells expressing EGFR (A431) by flow cytometry. It is filed as binding. On the procedure:
Human squamous carcinoma A431 cells expressing EGFR were grown to 80-90% confluence in RPMI medium supplemented with 10% fetal bovine serum and harvested by trypsinization. […] Cell binding was performed at 4° C. in FACS buffer in a volume calculated to ensure fivefold scFv excess and for a duration calculated to ensure that the reaction had reached equilibrium. After two washes with 200 μL of FACS buffer, cell-bound scFv was detected by the addition of 100 μl of 1 μg/ml biotinylated His probe (Santa Cruz Biotech.) and a 1:800 (v/v) dilution of streptavidin-PE (Biosource). After incubation at 4° C. for 30 min, the cells were washed twice and resuspended in PBS containing 4% (v/v) paraformaldehyde. Fluorescence was measured by flow cytometry in a FACS LSRII instrument (Becton Dickinson), and the median fluorescence intensity (MFI) values were fit to the equation:
MFI=MFImin+MFImax([Ab]/(KD+[Ab])
using the software program Kaleidagraph as described previously (Benedict et al. (1997) J. Immunol. Methods, 201: 223-231).

B1: EGFR-targeted immunoliposome constructed from C10 scFv (other)
VH: EVQLVQSGAEVKKPGSSVKVSCKASGGTFSSYAISWVRQAPGQGLEWMGGIIPIFGTANYAQKFQGRVTITADESTSTAYMELSSLRSEDTAVYYCAREEGPYCSSTSCYGAFDIWGQGTLVTVSS
VL: QSVLTQDPAVSVALGQTVKITCQGDSLRSYFASWYQQKPGQAPTLVMYARNDRPAGVPDRFSGSKSGTSASLAISGLQSEDEADYYCAAWDDSLNGYLFGAGTKLTVL
modifications: free cysteine residue at the COOH terminus conjugated to Mal-PEG-DSPE and inserted into the liposome ; The scFv carries a free cysteine at the COOH terminus conjugated to Mal-PEG-DSPE and inserted into a 100-120 nm liposome. It is multivalent, at 12-148 scFv per liposome. None of this can be carried by the letters.
notes: also called C10 ILs; C10 IL; not shown: scFv linker, the C-terminal extension with the free cysteine and tags, and the Mal-PEG-DSPE liposome carrier
Turning to B1, the Kd was 0.36 nM in assay [1] and 1.75 nM in assay [2].

B2: C10: parental (wild-type) internalizing human anti-EGFR scFv from a non-immune phage library; SEQ ID NO:1 (protein)
scFv: B1 VH
modifications: Synthetic antibody
As to B2, the “binding to NR6M cells” value in assay [3] is listed as “strong staining; also recorded: stained”. In [4], the “binding to MDAMB468 cells” value is reported as “stained”. The “binding to MDAMB453 cells” value in [5] is given as “did not stain”. In addition, the “binding to A431 cells” value in assay [6] is reported as “stained”. The “binding of yeast-displayed scFv to biotinylated recombinant EGFR” value in assay [7] was “only minimal binding”. Besides, the “binding to NR6 cells” value in assay [8] is reported as “minimal binding; also recorded: did not stain”.

B3: 2224: P2/2 scFv combined with the VH CDR3 Gly to Ala mutation from P2/4; SEQ ID NO:17 and 24 (protein)
scFv: B1 VL with F31L, M47T
modifications: Synthetic antibody
On to B3, for which the “improvement in affinity compared to C10 scFv” value in [9] is given as 280 fold.
